Reference: PMC10810954, “Structural and functional insights into the lipid regulation of human anion exchanger 2” (Nature Communications, 2024)

Molecular target: the molecule itself
Assay: cryo-EM structure; purified AE2 in 50 μM GDN, 150 mM NaCl, 20 mM HEPES pH 7.4; Titan Krios 300 kV; homodimer

B1: Full-length canonical human AE2 (isoform 1), wild type (natural protein, UniProt P04920-1 1-1241, looked up)
chain: MSSAPRRPAKGADSFCTPEPESLGPGTPGFPEQEEDELHRTLGVERFEEILQEAGSRGGEEPGRSYGEEDFEYHRQSSHHIHHPLSTHLPPDARRRKTPQGPGRKPRRRPGASPTGETPTIEEGEEDEDEASEAEGARALTQPSPVSTPSSVQFFLQEDDSADRKAERTSPSSPAPLPHQEATPRASKGAQAGTQVEEAEAEAVAVASGTAGGDDGGASGRPLPKAQPGHRSYNLQERRRIGSMTGAEQALLPRVPTDEIEAQTLATADLDLMKSHRFEDVPGVRRHLVRKNAKGSTQSGREGREPGPTPRARPRAPHKPHEVFVELNELLLDKNQEPQWRETARWIKFEEDVEEETERWGKPHVASLSFRSLLELRRTLAHGAVLLDLDQQTLPGVAHQVVEQMVISDQIKAEDRANVLRALLLKHSHPSDEKDFSFPRNISAGSLGSLLGHHHGQGAESDPHVTEPLMGGVPETRLEVERERELPPPAPPAGITRSKSKHELKLLEKIPENAEATVVLVGCVEFLSRPTMAFVRLREAVELDAVLEVPVPVRFLFLLLGPSSANMDYHEIGRSISTLMSDKQFHEAAYLADEREDLLTAINAFLDCSVVLPPSEVQGEELLRSVAHFQRQMLKKREEQGRLLPTGAGLEPKSAQDKALLQMVEAAGAAEDDPLRRTGRPFGGLIRDVRRRYPHYLSDFRDALDPQCLAAVIFIYFAALSPAITFGGLLGEKTQDLIGVSELIMSTALQGVVFCLLGAQPLLVIGFSGPLLVFEEAFFSFCSSNHLEYLVGRVWIGFWLVFLALLMVALEGSFLVRFVSRFTQEIFAFLISLIFIYETFYKLVKIFQEHPLHGCSASNSSEVDGGENMTWAGARPTLGPGNRSLAGQSGQGKPRGQPNTALLSLVLMAGTFFIAFFLRKFKNSRFFPGRIRRVIGDFGVPIAILIMVLVDYSIEDTYTQKLSVPSGFSVTAPEKRGWVINPLGEKSPFPVWMMVASLLPAILVFILIFMETQITTLIISKKERMLQKGSGFHLDLLLIVAMGGICALFGLPWLAAATVRSVTHANALTVMSKAVAPGDKPKIQEVKEQRVTGLLVALLVGLSIVIGDLLRQIPLAVLFGIFLYMGVTSLNGIQFYERLHLLLMPPKHHPDVTYVKKVRTLRMHLFTALQLLCLALLWAVMSTAASLAFPFILILTVPLRMVVLTRIFTDREMKCLDANEAEPVFDEREGVDEYNEMPMPV
notes: Anion exchanger 2 (AE2, SLC4A2), human, isoform a, UniProtKB P04920-1, full length; Full-length protein was purified, but only the TMDs are resolved in the map; the NTD, parts of EL3, EL4, EL6 and the C-terminus are not modelled; also called Anion exchanger 2; hAE2; source: HEK293F (FreeStyle 293 F) cells, BacMam system, purified (LMNG/CHS extraction, Ni-NTA, TEV, Superose 6 in GDN); not shown: …
  stoichiometry N: 2

B2: Full-length human AE2 with R932A/K1147A/H1148A mutations (natural protein, UniProt P04920-1 1-1241, looked up)
chain: MSSAPRRPAKGADSFCTPEPESLGPGTPGFPEQEEDELHRTLGVERFEEILQEAGSRGGEEPGRSYGEEDFEYHRQSSHHIHHPLSTHLPPDARRRKTPQGPGRKPRRRPGASPTGETPTIEEGEEDEDEASEAEGARALTQPSPVSTPSSVQFFLQEDDSADRKAERTSPSSPAPLPHQEATPRASKGAQAGTQVEEAEAEAVAVASGTAGGDDGGASGRPLPKAQPGHRSYNLQERRRIGSMTGAEQALLPRVPTDEIEAQTLATADLDLMKSHRFEDVPGVRRHLVRKNAKGSTQSGREGREPGPTPRARPRAPHKPHEVFVELNELLLDKNQEPQWRETARWIKFEEDVEEETERWGKPHVASLSFRSLLELRRTLAHGAVLLDLDQQTLPGVAHQVVEQMVISDQIKAEDRANVLRALLLKHSHPSDEKDFSFPRNISAGSLGSLLGHHHGQGAESDPHVTEPLMGGVPETRLEVERERELPPPAPPAGITRSKSKHELKLLEKIPENAEATVVLVGCVEFLSRPTMAFVRLREAVELDAVLEVPVPVRFLFLLLGPSSANMDYHEIGRSISTLMSDKQFHEAAYLADEREDLLTAINAFLDCSVVLPPSEVQGEELLRSVAHFQRQMLKKREEQGRLLPTGAGLEPKSAQDKALLQMVEAAGAAEDDPLRRTGRPFGGLIRDVRRRYPHYLSDFRDALDPQCLAAVIFIYFAALSPAITFGGLLGEKTQDLIGVSELIMSTALQGVVFCLLGAQPLLVIGFSGPLLVFEEAFFSFCSSNHLEYLVGRVWIGFWLVFLALLMVALEGSFLVRFVSRFTQEIFAFLISLIFIYETFYKLVKIFQEHPLHGCSASNSSEVDGGENMTWAGARPTLGPGNRSLAGQSGQGKPRGQPNTALLSLVLMAGTFFIAFFLRKFKNSRFFPGRIARVIGDFGVPIAILIMVLVDYSIEDTYTQKLSVPSGFSVTAPEKRGWVINPLGEKSPFPVWMMVASLLPAILVFILIFMETQITTLIISKKERMLQKGSGFHLDLLLIVAMGGICALFGLPWLAAATVRSVTHANALTVMSKAVAPGDKPKIQEVKEQRVTGLLVALLVGLSIVIGDLLRQIPLAVLFGIFLYMGVTSLNGIQFYERLHLLLMPPAAHPDVTYVKKVRTLRMHLFTALQLLCLALLWAVMSTAASLAFPFILILTVPLRMVVLTRIFTDREMKCLDANEAEPVFDEREGVDEYNEMPMPV
notes: No PIP2 in the map; NTD resolved; also called AE2_(IF/REST); mutant AE2; not shown: GFP, C-terminal, cleaved; His tag, C-terminal, cleaved
  stoichiometry N: 2
